{"source": "patent US11278600B2", "about": "“Human alpha-galactosidase variants” (Codexis, Inc., priority 2014, dated 2022)", "molecules": {"B1": {"name": "303 (protein)", "chain": "LDNGLARTPTMGWLHWERFMCNLDCQEEPDSCISEKLFMEMAELMVSEGWKDAGYEYLCIDDCWMAPQRDSEGRLQADPQRFPHGIRQLANYVHSKGLKLGIYADVGNKTCAGFPGSFGYYDIDAQTFADWGVDLLKFDGCYCDSLENLADGYKHMSLALNRTGRSIVYSCEWPLYMWPFQKPNYTEIRQYCNHWRNFADIDDSWASIKSILDWTSFNQERIVDVAGPGGWNDPDMLVIGNFGLSWDQQVTQMALWAIMAAPLFMSNDLRHISPQAKALLQDKDVIAINQDPLGKQGYQLRQGDNFEVWERPLSGLAWAVAIINRQEIGGPRSYTIEVASLGDGVACNPACFITQLLPVKRKLGLYNWTSRLKSHVNPTGTVLLQLENTMQMSLKDLL", "modifications": "Synthetic Polypeptide sequence of Variant No. 303 of mature Human GLA"}, "B2": {"name": "304 (protein)", "chain": "B1 chain with D247N, Q302K, L316D, E337P, D343K, A350G, K362Q, L365F, V376I", "modifications": "Synthetic Polypeptide sequence of Variant No. 304 of mature Human GLA"}, "B3": {"name": "306 (protein)", "chain": "B1 chain with R221K, Q302K, E337A, D343K, L365F, V376I", "modifications": "Synthetic Polypeptide sequence of Variant No. 306 of mature Human GLA"}, "B4": {"name": "307 (protein)", "chain": "B1 chain with R221K, D247N, Q302K, E337A, D343G, L365F, T369S", "modifications": "Synthetic Polypeptide sequence of Variant No. 307 of mature Human GLA"}, "B5": {"name": "305 (protein)", "chain": "B1 chain with D247N, Q302K, L316D, E337P, D343K, L365F, T369S, V376I", "modifications": "Synthetic Polypeptide sequence of Variant No. 305 of mature Human GLA"}}, "type_in_all_cases": "biochemical", "key": {"[1]": {"assay": "HTP-analysis of supernatants pretreated with base (MUGal hydrolysis)", "conditions": "challenge at pH 8.2; activity of the variant/activity of Rd3BB (SEQ ID NO: 13); yeast culture supernatant", "how_it_was_run": "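GLA variants secreted from yeast INVSc1; culture supernatants pre-incubated with McIlvaine buffer pH 7.0–8.2 or 200 mM bicarbonate pH 9.1–9.7 at 37° C. for 1–18 h. Residual activity: MUGal (4 mM stock) hydrolysis at pH 4.3–4.8, 37° C., 30–180 min, carbonate quench; fluorescence Ex 355/Em 448 nm.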"}, "[2]": {"assay": "HTP-analysis of yeast culture supernatants, no challenge (MUGal hydrolysis)", "conditions": "activity of the variant/activity of Rd3BB (SEQ ID NO: 13), yeast culture supernatant", "how_it_was_run": "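GLA variants expressed in yeast INVSc1, secreted into SD-Ura broth over 66-84 h at 30° C; clarified supernatants tested without challenge. Supernatant mixed with McIlvaine buffer pH 4.8 and 2 mM MUGal (citrate/KCl, pH 4.6), 37° C for 30-180 min, carbonate-quenched, fluorescence Ex 355/Em 448 nm.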"}, "[3]": {"assay": "HTP-analysis of supernatants pretreated with acid (MUGal hydrolysis)", "conditions": "challenge at pH 4.0; activity of the variant/activity of Rd3BB (SEQ ID NO: 13); yeast culture supernatant", "how_it_was_run": "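Yeast INVSc1 supernatant, GLA variants; acid challenge: McIlvaine pH 3.3-4.3, 37° C., 1-3 h. Assay: MUGal in McIlvaine pH 4.8 plus citrate pH 4.3, 37° C., 30-180 min, Na2CO3 stop, Ex 355/Em 448 nm.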"}, "[4]": {"assay": "HTP-analysis of supernatants pretreated with bovine serum (MUGal hydrolysis)", "conditions": "activity of the variant/activity of Rd3BB (SEQ ID NO: 13), yeast culture supernatant", "how_it_was_run": "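Yeast INVSc1 culture supernatants containing secreted GLA variants were mixed with bovine serum (20:80) and held 1 h at 37° C. Serum-treated samples then reacted with MUGal (4 mM stock) in citrate/McIlvaine buffer (pH 4.3/4.8) for 180 min at 37° C., were quenched with sodium carbonate, and read by fluorescence (Ex 355, Em 448 nm).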"}}, "note": "Residue numbers refer to the chain shown, from its start."}
{"molecule": "B1", "values": [{"measurement": "Relative Activity of GLA Variants After Challenge at pH 8.2", "setting": "[1]", "result": "++ (++ = >1.5 to 2.5 relative activity over Rd3BB (SEQ ID NO: 13))"}, {"measurement": "Relative Activity of GLA Variants After No Challenge (NC)", "setting": "[2]", "result": "++ (++ = >1.5 to 2.5 relative activity over Rd3BB (SEQ ID NO: 13))"}, {"measurement": "Relative Activity of GLA Variants After Challenge at pH 4.0", "setting": "[3]", "result": "++ (++ = >1.5 to 2.5 relative activity over Rd3BB (SEQ ID NO: 13))"}, {"measurement": "Relative Activity of GLA Variants After Challenge with Serum", "setting": "[4]", "result": "+ (+ = 0.5 to 1.5 relative activity over Rd3BB (SEQ ID NO: 13))"}]}
{"molecule": "B2", "values": [{"measurement": "Relative Activity of GLA Variants After Challenge at pH 8.2", "setting": "[1]", "result": "++ (++ = >1.5 to 2.5 relative activity over Rd3BB (SEQ ID NO: 13))"}, {"measurement": "Relative Activity of GLA Variants After No Challenge (NC)", "setting": "[2]", "result": "++ (++ = >1.5 to 2.5 relative activity over Rd3BB (SEQ ID NO: 13))"}, {"measurement": "Relative Activity of GLA Variants After Challenge at pH 4.0", "setting": "[3]", "result": "++ (++ = >1.5 to 2.5 relative activity over Rd3BB (SEQ ID NO: 13))"}, {"measurement": "Relative Activity of GLA Variants After Challenge with Serum", "setting": "[4]", "result": "++ (++ = >1.5 to 2.5 relative activity over Rd3BB (SEQ ID NO: 13))"}]}
{"molecule": "B3", "values": [{"measurement": "Relative Activity of GLA Variants After Challenge at pH 8.2", "setting": "[1]", "result": "++ (++ = >1.5 to 2.5 relative activity over Rd3BB (SEQ ID NO: 13))"}, {"measurement": "Relative Activity of GLA Variants After No Challenge (NC)", "setting": "[2]", "result": "+ (+ = 0.5 to 1.5 relative activity over Rd3BB (SEQ ID NO: 13))"}, {"measurement": "Relative Activity of GLA Variants After Challenge at pH 4.0", "setting": "[3]", "result": "++ (++ = >1.5 to 2.5 relative activity over Rd3BB (SEQ ID NO: 13))"}, {"measurement": "Relative Activity of GLA Variants After Challenge with Serum", "setting": "[4]", "result": "++ (++ = >1.5 to 2.5 relative activity over Rd3BB (SEQ ID NO: 13))"}]}
{"molecule": "B4", "values": [{"measurement": "Relative Activity of GLA Variants After Challenge at pH 8.2", "setting": "[1]", "result": "+ (+ = 0.5 to 1.5 relative activity over Rd3BB (SEQ ID NO: 13))"}, {"measurement": "Relative Activity of GLA Variants After No Challenge (NC)", "setting": "[2]", "result": "+ (+ = 0.5 to 1.5 relative activity over Rd3BB (SEQ ID NO: 13))"}, {"measurement": "Relative Activity of GLA Variants After Challenge at pH 4.0", "setting": "[3]", "result": "+ (+ = 0.5 to 1.5 relative activity over Rd3BB (SEQ ID NO: 13))"}, {"measurement": "Relative Activity of GLA Variants After Challenge with Serum", "setting": "[4]", "result": "+ (+ = 0.5 to 1.5 relative activity over Rd3BB (SEQ ID NO: 13))"}]}
{"molecule": "B5", "values": [{"measurement": "Relative Activity of GLA Variants After Challenge at pH 8.2", "setting": "[1]", "result": "+ (+ = 0.5 to 1.5 relative activity over Rd3BB (SEQ ID NO: 13))"}, {"measurement": "Relative Activity of GLA Variants After No Challenge (NC)", "setting": "[2]", "result": "+ (+ = 0.5 to 1.5 relative activity over Rd3BB (SEQ ID NO: 13))"}, {"measurement": "Relative Activity of GLA Variants After Challenge at pH 4.0", "setting": "[3]", "result": "+ (+ = 0.5 to 1.5 relative activity over Rd3BB (SEQ ID NO: 13))"}, {"measurement": "Relative Activity of GLA Variants After Challenge with Serum", "setting": "[4]", "result": "++ (++ = >1.5 to 2.5 relative activity over Rd3BB (SEQ ID NO: 13))"}]}
